Test results reported in PMC7888922.

Biological target: sACE2_(2).v2.4-IgG1 (human) (UniProt Q9BYF1)
Test: BLI

Substance | Kd [nM] | koff [s⁻¹] | kon [M⁻¹ s⁻¹]
SARS-CoV-2 RBD-N501Y (8his-tagged) (from UniProt P0DTC2 333-529) (domain or fragment) | < 0.1 | 0.00011 | 360000
SARS-CoV-2 RBD-Y449K (8his-tagged) (from UniProt P0DTC2 333-529) (domain or fragment) | 0.9 | 0.004 | 4.3e+06
